Numbering of substitutions follows the chain as printed. Read-outs that look alike come from different tables or passages of the source.
T1: P1182_AMBMA (Amblyomma maculatum, UniProt G3MJ83 27-115)
T1 sequence: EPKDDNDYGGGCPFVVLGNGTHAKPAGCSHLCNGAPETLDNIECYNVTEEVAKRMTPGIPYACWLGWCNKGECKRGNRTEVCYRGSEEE

T2: P1243_AMBAM (Amblyomma americanum, UniProt A0A0C9S461 26-123)
T2 sequence: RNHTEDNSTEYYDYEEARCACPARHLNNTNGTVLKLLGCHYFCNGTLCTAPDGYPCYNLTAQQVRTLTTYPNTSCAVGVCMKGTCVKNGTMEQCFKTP

T3: P991_AMBCA (Amblyomma cajennense, UniProt A0A023FFD0 29-136)
T3 sequence: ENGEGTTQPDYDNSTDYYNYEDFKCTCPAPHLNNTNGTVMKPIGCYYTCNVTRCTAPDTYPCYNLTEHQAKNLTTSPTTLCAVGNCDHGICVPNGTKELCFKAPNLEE

T4: P1181_AMBMA (Amblyomma maculatum, UniProt G3MIX6 26-115)
T4 sequence: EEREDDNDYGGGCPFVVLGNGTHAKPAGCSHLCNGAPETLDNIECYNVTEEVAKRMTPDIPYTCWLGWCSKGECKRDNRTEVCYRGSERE

T5: P672_RHIPU (Rhipicephalus pulchellus, UniProt L7MC74 22-125)
T5 sequence: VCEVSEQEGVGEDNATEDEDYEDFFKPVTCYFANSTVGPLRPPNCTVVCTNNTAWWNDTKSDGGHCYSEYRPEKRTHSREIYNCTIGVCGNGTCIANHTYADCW

T6: P467_RHIPU (Rhipicephalus pulchellus, UniProt L7M8Z8 22-127)
T6 sequence: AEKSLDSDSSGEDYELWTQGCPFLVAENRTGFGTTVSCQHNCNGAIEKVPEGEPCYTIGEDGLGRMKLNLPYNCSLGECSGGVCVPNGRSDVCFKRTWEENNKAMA

T7: P974_AMBCA (Amblyomma cajennense, UniProt A0A023FDY8 22-118)
T7 sequence: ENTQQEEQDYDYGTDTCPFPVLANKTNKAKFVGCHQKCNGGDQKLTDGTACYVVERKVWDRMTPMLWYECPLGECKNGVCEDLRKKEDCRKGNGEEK

T8: P1183_AMBTR (Amblyomma triste, UniProt A0A023G9N9 26-115)
T8 sequence: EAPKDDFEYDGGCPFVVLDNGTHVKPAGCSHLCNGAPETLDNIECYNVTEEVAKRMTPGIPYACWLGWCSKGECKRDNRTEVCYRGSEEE

T9: P546_AMBCA (Amblyomma cajennense, UniProt A0A023FBW7 22-118)
T9 sequence: T7 sequence with Q8E, E69S, D88E

T10: P1180_AMBTR (Amblyomma triste, UniProt A0A023G6B6 26-116)
T10 sequence: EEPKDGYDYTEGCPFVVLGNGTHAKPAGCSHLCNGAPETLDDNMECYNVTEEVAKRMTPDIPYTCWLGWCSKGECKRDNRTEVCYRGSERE

T11: P985_AMBPA (Amblyomma parvum, UniProt A0A023FT45 25-132)
T11 sequence: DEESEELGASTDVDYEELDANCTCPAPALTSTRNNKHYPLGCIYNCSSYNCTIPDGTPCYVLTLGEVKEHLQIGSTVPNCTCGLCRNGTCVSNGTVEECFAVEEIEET

T12: CXCL8_HUMAN (human, UniProt P10145 28-99)
T12 sequence: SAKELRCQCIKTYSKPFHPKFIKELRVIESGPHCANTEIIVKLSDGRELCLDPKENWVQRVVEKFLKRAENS

T13: CXCL7_HUMAN (human, UniProt P02775 59-128)
T13 sequence: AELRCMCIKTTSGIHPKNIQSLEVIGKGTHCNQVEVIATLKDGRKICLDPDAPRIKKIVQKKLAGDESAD

T14: CXCL4_HUMAN (human, UniProt P02776 32-101)
T14 sequence: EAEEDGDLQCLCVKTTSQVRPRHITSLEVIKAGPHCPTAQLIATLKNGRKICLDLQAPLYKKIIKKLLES

T15: CXCL5_HUMAN (human, UniProt P42830 41-114)
T15 sequence: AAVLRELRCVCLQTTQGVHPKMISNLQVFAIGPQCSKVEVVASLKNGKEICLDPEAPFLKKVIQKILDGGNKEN

T16: CXCL11_HUMAN (human, UniProt O14625 22-94)
T16 sequence: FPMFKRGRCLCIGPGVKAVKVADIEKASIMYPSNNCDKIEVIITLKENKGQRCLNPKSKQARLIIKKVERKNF

T17: CXCL14_HUMAN (human, UniProt O95715 35-111)
T17 sequence: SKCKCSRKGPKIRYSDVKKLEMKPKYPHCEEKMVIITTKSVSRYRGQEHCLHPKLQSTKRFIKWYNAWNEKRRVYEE

T18: P1134_IXORI (Ixodes ricinus, UniProt A0A0K8RAI0 32-135)
T18 sequence: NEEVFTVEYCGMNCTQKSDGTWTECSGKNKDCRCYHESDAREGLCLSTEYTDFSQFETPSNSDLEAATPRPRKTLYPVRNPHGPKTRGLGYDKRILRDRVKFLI

T19: CXCL6_HUMAN (human, UniProt P80162 38-114)
T19 sequence: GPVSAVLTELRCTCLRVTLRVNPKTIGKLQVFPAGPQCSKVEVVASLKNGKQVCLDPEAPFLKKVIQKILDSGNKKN

T20: CXCL10_HUMAN (human, UniProt P02778 22-98)
T20 sequence: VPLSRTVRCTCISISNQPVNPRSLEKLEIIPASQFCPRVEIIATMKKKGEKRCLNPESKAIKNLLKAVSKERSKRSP

T21: CXCL13_HUMAN (human, UniProt O43927 23-109)
T21 sequence: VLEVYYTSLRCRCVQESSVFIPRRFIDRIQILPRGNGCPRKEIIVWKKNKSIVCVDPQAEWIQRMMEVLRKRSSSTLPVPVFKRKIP

T22: CCL5_HUMAN (human, UniProt P13501 24-91)
T22 sequence: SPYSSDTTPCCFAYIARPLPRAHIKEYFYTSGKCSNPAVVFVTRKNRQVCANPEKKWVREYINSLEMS

B1: CCL3L1_HUMAN (ligand)
chain: APLAADTPTACCFSYTSRQIPQNFIADYFETSSQCSKPSVIFLTKRGRQVCADPSEEWVQKYVSDLELSA
B2: P1090_IXORI (other)
chain: GSKELSGPESSENSIEAAFCDTNCTEGTDGVWSGCSAGCFCVHVGNSTVGRCMTFNGVDGG
B3: CXCL9_HUMAN (ligand)
chain: TPVVRKGRCSCISTNQGTIHLQSLKDLKQFAPSPSCEKIEIIATLKNGVQTCLNPDSADVKELIKKWEKQVSQKKKQKNGKKHQKKKVLKVRKSQRSRQKKTT
B4: P1170_IXORI (other)
chain: LGDEDQLFSVEYCGTNCTQQDDGKWTPCSGKNGKCKCYHEDGKRYGLCLYTEYTDFSQYPNPEGSEIENTRPRP
B5: CCL13_HUMAN (ligand)
chain: not shown
B6: P983_AMBCA (other)
chain: EDTGTEDDFDYGNTGCPFPVLGNYKSNMTKPVGCKNKCGSGYEVLNDTTPCYVIDQKVFNNMVPLRQYSKCPLGFCENGECKPNDQAEDCYKGREEQK
B7: P1063_AMBTR (other)
chain: QSEVGKNVPGCGDTETLEAPPQEKPPYYEYKDEEGCTQKVLESWFQAGERSTGRGQKKRGHGRRPSRVLRTVDCRKNCTVGITALPDGHLCLVPRGDPFTRGGAIKYGCYLGDCASGHCQHRYETVSCRLPAPDTTAKPYYVTPEK
B8: CCL14_HUMAN (ligand)
chain: TESSSRGPYHPSECCFTYTTYKIPRQRIMDYYETNSQCSKPGIVFITKRGHSVCTNPSDKWVQDYIKDMKEN
B9: CCL23_HUMAN (ligand)
chain: RVTKDAETEFMMSKLPLENPVLLDRFHATSADCCISYTPRSIPCSLLESYFETNSECSKPGVIFLTKKGRRFCANPSDKQVQVCMRMLKLDTRIKTRKN

Key:
P1182_AMBMA = target: T1, P1182_AMBMA; assay: BLI
P1243_AMBAM [1] = target: T2, P1243_AMBAM; assay: BLI
P991_AMBCA = target: T3, P991_AMBCA; assay: BLI
P983_AMBCA = target: B6; assay: BLI
P1181_AMBMA = target: T4, P1181_AMBMA; assay: BLI
P672_RHIPU = target: T5, P672_RHIPU; assay: BLI
P467_RHIPU = target: T6, P467_RHIPU; assay: BLI
P974_AMBCA = target: T7, P974_AMBCA; assay: BLI
P1183_AMBTR = target: T8, P1183_AMBTR; assay: BLI
P546_AMBCA = target: T9, P546_AMBCA; assay: BLI
P1180_AMBTR = target: T10, P1180_AMBTR; assay: BLI
P985_AMBPA = target: T11, P985_AMBPA; assay: BLI
BK1.1FITC = assay: fluorescence polarisation, 50 nM peptide
P1243_AMBAM [2] = target: T2, P1243_AMBAM; assay: BLI; remark: listed apart in the source
CXCL8_HUMAN [3] = target: T12, CXCL8_HUMAN; assay: BLI [Cont.]
CXCL7_HUMAN = target: T13, CXCL7_HUMAN; assay: BLI [Cont.]
CXCL4_HUMAN = target: T14, CXCL4_HUMAN; assay: BLI [Cont.]
CXCL5_HUMAN = target: T15, CXCL5_HUMAN; assay: BLI [Cont.]
CXCL11_HUMAN = target: T16, CXCL11_HUMAN; assay: yeast surface display FACS re-test
CXCL9_HUMAN = target: B3; assay: BLI
CXCL12_HUMAN = CXCL12_HUMAN (human, UniProt P48061 22-89); assay: BLI
Chain of CXCL12_HUMAN (P48061 22-89 limits assumed): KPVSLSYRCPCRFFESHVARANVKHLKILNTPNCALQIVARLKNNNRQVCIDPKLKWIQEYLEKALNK

CXCL14_HUMAN = target: T17, CXCL14_HUMAN; assay: BLI
P1134_IXORI = target: T18, P1134_IXORI; assay: BLI
CXCL6_HUMAN = target: T19, CXCL6_HUMAN; assay: BLI [Cont.]
CXCL8_HUMAN [4] = target: T12, CXCL8_HUMAN; assay: yeast surface display FACS re-test
CXCL10_HUMAN = target: T20, CXCL10_HUMAN; assay: BLI
CXCL13_HUMAN = target: T21, CXCL13_HUMAN; assay: BLI
CCL2_HUMAN = CCL2_HUMAN (human, UniProt P13500 24-99); assay: cell-based or functional assay
Chain of CCL2_HUMAN (P13500 24-99 limits assumed): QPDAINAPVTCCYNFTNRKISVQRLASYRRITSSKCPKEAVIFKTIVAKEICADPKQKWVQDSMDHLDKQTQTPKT

CCL5_HUMAN = target: T22, CCL5_HUMAN; assay: yeast surface display FACS

Row | Binder | Kd (P1182_AMBMA) [nM] | Kd (P1243_AMBAM [1]) [nM] | Kd (P991_AMBCA) [nM] | Kd (P983_AMBCA) [nM] | Kd (P1181_AMBMA) [nM] | Kd (P467_RHIPU) [nM] | Kd (P974_AMBCA) [nM] | Kd (P546_AMBCA) [nM] | Kd (P1180_AMBTR) [nM] | binding result (BK1.1FITC) | further results
1 | B1 | 9.5 | 5.05 | 1.4 | 2.1 | 3.3 | 0.524 | 13.1 | 15 | 2.2 | no binding (tested: 1 µM) | Kd (P672_RHIPU): 2.7 nM; Kd (P1183_AMBTR): 110 nM; Kd (P985_AMBPA): 7.5 nM; Kd (P1243_AMBAM [2]): 5.04 nM
2 | B2 | – | – | – | – | – | – | – | – | – | – | binding result (CXCL8_HUMAN [3]): no binding (tested: 300 nM); binding result (CXCL7_HUMAN): no binding (tested: 300 nM); binding result (CXCL4_HUMAN): no binding (tested: 300 nM); Kd (CXCL5_HUMAN): 43 nM; % cells over threshold fluorescence (CXCL11_HUMAN): 32%; binding result (CXCL9_HUMAN): no binding (tested: 300 nM); binding result (CXCL12_HUMAN): no binding (tested: 300 nM); binding result (CXCL14_HUMAN): no binding (tested: 300 nM)
3 | B3 | – | – | – | – | – | – | – | – | – | – | binding result (P1134_IXORI): no binding (tested: 300 nM)
4 | B4 | – | – | – | – | – | – | – | – | – | – | binding result (CXCL6_HUMAN): no binding (tested: 300 nM); binding result (CXCL5_HUMAN): no binding (tested: 300 nM); % cells over threshold fluorescence (CXCL8_HUMAN [4]): 81%; binding result (CXCL9_HUMAN): no binding (tested: 300 nM); binding result (CXCL12_HUMAN): no binding (tested: 300 nM); binding result (CXCL10_HUMAN): no binding (tested: 300 nM); binding result (CXCL14_HUMAN): no binding (tested: 300 nM); binding result (CXCL13_HUMAN): no binding (tested: 300 nM)
5 | B5 | 56 | 0.788 | 0.419 | 17 | 19 | 2.56 | 22.9 | 13 | 9 | no binding (tested: 1 µM) | Kd (P1183_AMBTR): 5.7 nM; Kd (P985_AMBPA): 89 nM
6 | B6 | – | – | – | – | – | – | – | – | – | – | IC50, THP1 cell migration (CCL2_HUMAN): 5.95 nM
7 | B7 | – | – | – | – | – | – | – | – | – | – | binding result (CCL5_HUMAN): binds
8 | B8 | 50 | 0.816 | 0.43 | 81 | 47 | 4.13 | 49.1 | 28 | 4.4 | no binding (tested: 1 µM) | Kd (P672_RHIPU): 5.5 nM
9 | B9 | – | – | – | – | – | – | – | – | – | no binding (tested: 1 µM) | –
